The source of these data is article PMC4333373, “Specific and non-specific interactions of ParB with DNA: implications for chromosome segregation”.

Substitutions are numbered along the chain they refer to.

In series [1] the target is T1, ParB (Spo0J) (Bacillus subtilis 168, UniProt P26497 1-282).
T1 sequence: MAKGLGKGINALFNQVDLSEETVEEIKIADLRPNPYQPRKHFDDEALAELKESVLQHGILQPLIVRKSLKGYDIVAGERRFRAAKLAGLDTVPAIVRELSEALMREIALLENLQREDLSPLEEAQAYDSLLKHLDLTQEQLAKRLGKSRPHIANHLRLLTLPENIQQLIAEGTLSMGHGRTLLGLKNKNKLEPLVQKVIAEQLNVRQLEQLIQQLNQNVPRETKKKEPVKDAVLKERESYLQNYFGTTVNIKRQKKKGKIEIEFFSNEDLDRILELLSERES
The series is described as follows: SEC-MALS; 80 uM ParB2; 50 mM Hepes-KOH pH 7.5, 100 mM KCl, 2.5 mM MgCl2, 0.1 mg/ml BSA, 1 mM DTT, 20 nM DNA; EMSA also 2.5% Ficoll, room temperature 30 min then ice 5 min, gel at 4 C. Particulars: protein: recombinant; tags: untagged; chain copies: 2; label: 5'-Hex on forward strand; blunt. On the technique in general: SEC sorts molecules by how far they enter the pores of the column.

For series [2], the target named is T1, ParB (Spo0J). The series is described as follows: SEC-MALS; 9 uM ParB2, 10 uM DNA; 81.6 ± 1.9 kDa, one dimer per DNA; 50 mM Hepes-KOH pH 7.5, 100 mM KCl, 2.5 mM MgCl2, 0.1 mg/ml BSA, 1 mM DTT, 20 nM DNA; EMSA also 2.5% Ficoll, room temperature 30 min then ice 5 min, gel at 4 C. To be noted: protein: recombinant; tags: untagged; chain copies: 2; label: 5'-Hex on forward strand; blunt.

In series [3] the target is T1, ParB (Spo0J). Put plainly: SEC-MALS; 50 mM Hepes-KOH pH 7.5, 100 mM KCl, 2.5 mM MgCl2, 0.1 mg/ml BSA, 1 mM DTT, 20 nM DNA; EMSA also 2.5% Ficoll, room temperature 30 min then ice 5 min, gel at 4 C. To be noted: protein: recombinant, tags: untagged, chain copies: 2, blunt.
The mark [4] stands for this setting: label: 5'-Hex on forward strand.

B1: 24-bp non-specific (dsDNA)
DNA 1: AGAACGTGCCCAGGGAGACAAAGA
DNA 2: TCTTTGTCTCCCTGGGCACGTTCT
As to B1, the binding result with ParB (Spo0J) [1] was “binds”.

B2: 24-bp parS (dsDNA)
DNA 1: AGAATGTTCCACGTGAAACAAAGA
DNA 2: TCTTTGTTTCACGTGGAACATTCT
On to B2, for which, in the series with ParB (Spo0J) [2], the binding result is reported as “binds”.

B3: 50-bp parS (dsDNA)
DNA 1: CAGCAGTTGAATCAGAATGTTCCACGTGAAACAAAGAAAAAAGAACCTGT
DNA 2: ACAGGTTCTTTTTTCTTTGTTTCACGTGGAACATTCTGATTCAACTGCTG
Regarding B3, in the series with ParB (Spo0J) [3] (label: 5'-Hex on forward strand (SEC-MALS)), the binding result is recorded as “binds”.

B4: 100-bp parS (dsDNA)
DNA 1: TGTTCGCCAACTTGAGCAGCTGATTCAGCAGTTGAATCAGAATGTTCCACGTGAAACAAAGAAAAAAGAACCTGTGAAAGATGCGGTTCTAAAAGAACGG
DNA 2: CCGTTCTTTTAGAACCGCATCTTTCACAGGTTCTTTTTTCTTTGTTTCACGTGGAACATTCTGATTCAACTGCTGAATCAGCTGCTCAAGTTGGCGAACA
For B4, the binding result with ParB (Spo0J) [3] (setting [4]) was “binds”.

B5: 100-bp non-specific (dsDNA)
DNA 1: B4 DNA 1 with T43C, T46G, A49C, C50A, T52G, A55G
DNA 2: B4 DNA 2 with T46C, A49C, G51T, T52G, A55C, A58G
Take B5: the binding result with ParB (Spo0J) [3] (setting [4]) is recorded as “binds”.
